Experimental data from PMC8885411, “Engineered ACE2 decoy mitigates lung injury and death induced by SARS-CoV-2 variants” (Nature Chemical Biology, 2022).

Biological target: T1, SARS-CoV-1 S protein with C-terminal C9 tag (SARS-CoV-1 (Severe acute respiratory …, UniProt P59594))
T1 construct: also called S protein of SARS-CoV-1; SARS-spike
Experiment: flow cytometry on cells
Settings: one partner purified

Row | Binder | binding result
1 | REGN10987 (antibody, V domains shown, also called imdevimab) VH: QVQLVESGGGVVQPGRSLRLSCAASGFTFSNYAMYWVRQAPGKGLEWVAVISYDGSNKYYADSVKGRFTISRDNSKNTLYLQMNSLRTEDTAVYYCASGSDYGDYLLVYWGQGTLVTVSS VL: QSALTQPASVSGSPGQSITISCTGTSSDVGGYNYVSWYQQHPGKAPKLMIYDVSKRPSGVSNRFSGSKSGNTASLTISGLQSEDEADYYCNSLTSISTWVFGGGTKLTVL | no binding
2 | REGN10933 (antibody, V domains shown, also called casirivimab) VH: QVQLVESGGGLVKPGGSLRLSCAASGFTFSDYYMSWIRQAPGKGLEWVSYITYSGSTIYYADSVKGRFTISRDNAKSSLYLQMNSLRAEDTAVYYCARDRGTTMVPFDYWGQGTLVTVSS VL: DIQMTQSPSSLSASVGDRVTITCQASQDITNYLNWYQQKPGKAPKLLIYAASNLETGVPSRFSGSGSGTDFTFTISGLQPEDIATYYCQQYDNLPLTFGGGTKVEIK | no binding
